# Results published in the nanobody polyreactivity screen of Harvey et al. (2022).
# Test: yeast display, Sf9 membrane polyspecificity reagent, FACS + sequencing; frameworks hold sequencing errors
# In short: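 A synthetic nanobody library was expressed on Saccharomyces cerevisiae BJ5465 by galactose induction for 36–48 hours. The library was stained for 1 hour at 4 °C with 10% biotinylated, detergent-solubilized Sf9 membrane reagent and enriched with streptavidin microbeads before FACS. Low and high (top ~1%) gates were set on anti-HA fluorescence for expression and streptavidin fluorescence for reagent binding, and each polyreactivity label reflects the gate of origin.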
row,Sequence,polyreactivity (PSR sort gate)
1,QVQLVESGVGLVQAGGSLRLSCAASGFIFHRYAMGWYRQAPGKERELVAGITSSGGSTYYADSVKGRFTISRDNAKNTVYLQMNSLKPEDTAVYYCNADSWLYRFFGYDYWGQGTQVTVSS,low polyreactivity
2,QVQLVESGGGLVQAGGSLRLSCPASGRTFGDYAMGWYRQAPGKERELVAAISSSGGRTYYADSVKGRFTISRDNAKNTVYLQMNSLKPEDTAVYYCAAQSKYYQYYSWGQGTQVTVSS,high polyreactivity
3,QVQLVESGGGLVQAGGSLRLSCAASGSTFEDYSMGWYRQAPGKERELVAAISHIGGSTYYADSVKGRFTISRDNAKNTVYLQMNSLKPDDTAVYYCAKGGFSSKFDYWGQGTQVTVSS,low polyreactivity
4,QVQLVESGGGLVQAGGSLRLSCAASGFIFDSYAMGWYRQAPGKERELVAAISDGSSTYADSVKGRFTISRDNAKNTVYLQMNSLKPEDTAVYYCAAGVSTWWSTYDYWGQGTQVTVSS,high polyreactivity
5,QVQLVESGGGLVQAGGSLRFSCAASGSILSKNAMGWYRQAPGKERELVAAISSGGSTYYADSVKGRFTISRDKAKNTVYLQLNSLKPEDTAVYYCATYCTSVAYHLYYWGQGTQVTVSS,low polyreactivity
6,QVQLVESGGGLVQAGGILRLSCAASGSIFGWYAMGWYRQAPGKERELVAGISWSGANTYYADSVKGRFTISRDNAKNTVYLQMNSLKPEDTAVYYCAAGPGRYYSRRYGYWGQGTQVTVSS,high polyreactivity
7,QVQLVESGGGLVQAGGSLRLSCAASGRTFTLNAMGWYRQAPGKEREFVAAISNSGVRTYYADSVKGRFTISRDNAKNTVYLQMNSLKPEDTAVYYCARTYQVGDSIDDYWGQGTQVTVSS,low polyreactivity
8,QVQLVESGGGLVQAGGSLRLSCAASGFTLYPYGMGWYRQAAGKERELVASISSRVGRTYYADSVKGRFTISRDNAKNTVYLQMNSLKPEDTAVYYCAASRLVRYQSRYASWGQGTQVTVSS,high polyreactivity
9,QVQLVESGGGLVQAGGSLRLSCAASGSIFGRNAMGLYRQAPGKERELVAAITDGGNTNYADSVKGRFTISRDNAKNTVYLQMNSLNPEDTAVYYCAARIPGTYGGRYGYDYWGQGTQVTVSS,low polyreactivity
10,QVQLVESGGGLVQAGGSLRLSCAASGFIFYYNAMGWYRQAPGKERELVAAISTDGGSTYYADSVKGRFTISRDNAKNTVYLQMNSLNPEDTAVYYCAAKRYKRYDYWGQGTQVTVSS,low polyreactivity
11,QVQLVESGGGLVQAGGSLRLSCAASGSIFVLYAMGWYRQAPGKERELVAAINYDGASTYYADSVKGRFTNSRDNAKNTVYLQMISLKREDTAVYYCAASWQFNIDVQLYLFEYWGQGTQVTVSS,low polyreactivity
12,QVQLVDSGGGLVQAGGSLRLSCAASGIIFVENAMGWYRQAPGKEREMVAAISWDGGSTYYADSVKGRFTISRDNAKNTVYLQMNSLKPEDTAVYYCAADLTISYSQEYYYWGQGTQVTVSS,low polyreactivity
13,QVQLVESGGGLVQAGGSLRLSCAASGRIFGVNAMGWYRQAPGKERELVAAISVSGDSTYYADSVKGRFTISRDNAKNTVYLQMNSLKPEDTAVYYCNAGFTFVPADLTDEYYWGQGTQVTVSS,low polyreactivity
14,QGQLVESGGGLVQAGGSLRLSCAASGSIFWYYAMGGYRQAPGKERELVADITSTGGSTYYADSVKGRFTISRDNAKNTVYLQMNSLKPEDTAVYYCAGEASYHGYYSLGYWGQGTQVTVSS,high polyreactivity
15,QVQLVESGGGLVQAGGSLRLSCAASGSTFGYNAMGWYRQAPGKEREFVASIDARGTSTYYADSVKGRFTISRDNAKNTVYLQMNSLKPEYTAVYYCAADAEFTWSTVRLGWIYIWYEYWGQGTQVTVSS,low polyreactivity
16,QVQLVESVGGLVQAGGSIRLSCAASGRIIDVNAMGWYRQAPGKERELVAAIRSGGRTNYADSVKGRFTISRDNAKNTVYLQMNSLKPEDTAVYYCGAVVWSSLDDYWGQGTQVTVSS,high polyreactivity
17,QVQLVESGGGLVQAGGRLRLSCAASGSIFTVYSMGWYRQAPGKERELVASIRFSSGRTYYADSVKGRFTISRDNAKNTVYLQMNSLKPEDTAVYYCAAETVSWYRYYYWGQGTQVTVSS,high polyreactivity
18,QVQLVESGGGLVQAGGSLRLSCAASGFTNAYYAMGWYRQAPGKEREFVASITSGGSTYYADSVKGRFTISRDNAKNTVYLQMNSLKPEDTAVYYCAARSPFYSYTPGYEYWGQGTQVTVSS,high polyreactivity
19,QVQLVESGGGLVQAGGSLRLSCAASGRTFRGNAMGWYRQAPGKERELVAAISRGGSTKYADSVKGRFTISGDNAKNTVYLQMNSLKPEDTAVYYCAADNRKSRYDYWGQGTQVTVSS,high polyreactivity
20,QVQLVESGGGLVQAGGSLRLSCAASGRTFSYYAIGWYRQAPGTERELVAGISYSGGTTYYADSVKGRFTISRDNAKNTVYLQMNSLKPEDTAVYYCATRYWTFSGYDYWGQGTQVTVSS,low polyreactivity
21,QVQLVESGGGLVQAGGSLRLSFAASGRIFPFYAMGWYRQEPGKERELVAALSWNGGSTFYADSVKGRFTISRDNAKNSVYLQMNSLKPEDTAVYYCAADCYATYFLYDSCGQGTQVTVSS,low polyreactivity
22,QVQLVESGGGLVQAGGSLRLSCAASRLTFVGYAMGWYRQAPGKETALVAALTSSGGGTYYADSVKGRFTISRDNAKNPVYLQMNSLKPQDTALYYCAKVTRGSQYDYWGQGTEVTVSS,low polyreactivity

row,Sequence,polyreactivity (PSR sort gate)
1,QVQLVESGGGLVQAGGSLRLSCAASGRTFGYYAMGWYRQAPGKERELVASISWIGDDTYYADSVKGRFTISRDYAKNTVYLQMNSLKPEDTAVYYCNAVYAGRYFGFDYWGQGTQVTVSS,high polyreactivity
2,QVQLVESGGGLVQAGGSLRLSCAASGRIFPDNAMGWYRQAHGKERELVAVITYSGGSTYYADSVKGRFTISRDNAKNTVYLQMNSLKPEDTAVYYCAARDYYIWFAEVDYWGQGTQVTVSS,low polyreactivity
3,QVQLVESGGGFVQAGGSLRLSCAASGSTFHDYVMGWYRQAPGKERELVATIRRGASTYYADSVKGRFTISRDNEKNTVYLQMNSLIPEDTAVYYCAVPATGGYFSSEYDYWGQGTQVTVSS,low polyreactivity
4,QVQLVESGGGLVQAGGSLRLSCAASGLTFRPNAMGWYRQAPGKERELVAAITWRGGRTYYADSVKGRFTISRDNAKNTVYLQMNSLKPEDTAVYYCAADSPYRGRPGPLNYGGDYWGQGTQVTVSS,high polyreactivity
5,QVQLVESGGGLVQAGGSLRLSCAASGFTFQYYAMGWYRQAPGKERELVAAITWSGTSTYYADSVKGRFTISRDNAKNTVYLQMNSLKPEDTAVYYCNKYSPYITYDYDYWGQGTQVTVSS,high polyreactivity
6,QVQLVESAGGLVQAGGSLRLSCSASGSTFSSNGMGWYRKAPGKERELVAAITSVGSTNYADSVKGRFTISRDNAKNTVYLQMNSLKPEDTAVYYCNAERTAYGGGDYWGQGTQVTVSS,low polyreactivity
7,QVQLVESGGGLVQAGGSLRLSCAASGFTFGRYAMGWYRQAPGKERELVAAISYSGGSTYYADSVKGRFTISRDNAKNTVYLQMNSLKPEDTAVYYCAARDSYWSVYYWGQGTQVTVSS,high polyreactivity
8,QVQLVESGGGLVQAGGSLRLSCAASGFIFRYYDMGWYRQAPGKERELVAAISWSGCSTYYADSVKGRFTISRDNAKNTVYLQMNSLKPEYTAVYYCAAERYAMLFYAEDYWGQGTQVTVSS,low polyreactivity
9,QVQLVESGGGLVQAGGSLRLSCAASGFTFPVYAMGWYRQAPGKEREFVAAITKSGGGTYYADSVKGRFTISRDNAKNTVYLQMNSLKPVDTAVYYCAKASRRFLTLGYDYWGQGTQVTVSS,high polyreactivity
10,QVQLVESGGGLVQAGGSLRLSCAASGITFDSNTKGWYRPAPGKEREFVATISYSGGSTYYADSVKGRFTISRDNAKNTVYFQMNSLKPEDTAVYYCHADYYGGPTMQYGYLWYDYWGEGTQVTVSS,low polyreactivity
11,QVQLVESGGGLVQAGGSLRLSCAASGNIFSDNAMGWYRQAPGKERELVAAITASTSDTYYADSVKGRFTISRDNAKNSVYLQMNSLKPEDTAVYYCAADSRGFQLFDYWGQGTQVTVSS,low polyreactivity
12,QVQLVESGGGLVQAGGSLRLSCAASGSTLYYNAMGWYRQAPGKERELVAAITSGGSTSYADSVKGRFTISRDNAKNTVSFQMYSLKPEDTAVYYCAAVFYRRFDNWGQGTQVTVSS,low polyreactivity
13,QVQLVESGGGLVQAGGSLRLSCAASGSTFNWNAMGWYRQAPGTERELVAAISKSGGTTYYADSVKGRFTISRDNAKNTVYFQMNSLKPEDTAVYYCAAVRRYHSYPDGGYWGQGTQVTVSS,high polyreactivity
14,QVQLVESGGGLVQAGGTLRLSGAASGFIFPQYAMGWYRQAPGKERELVAAISTGGGSTYYADSVKGRFTISRDNAKNTVYLQMNSLKPEDTAVYYCNARPKYDSGHYYWGQGTQVTVSS,high polyreactivity
15,QDQLVDSGGGLVQAGGSLRLSCAASGSIFWTYAMGWYRQAPGKERELVATITYSDGNTYYADSVKGRFTISRDNAMNTVYLQMNSLKPEDTAVYYCNADGIYASISGYRYDYWGQGTQVTVSS,low polyreactivity
16,QVQLVESGGGLVQAGGSLRLSCAASGRIFEHYAMGWYRQAPGKERELVAAITSSGDSTYYADSVKGRFTISRDNAKNTVYLQMNSLKPEDTAVYYCNAVAYISYLWGYYLSTPYDYWGQGTQVTVSS,high polyreactivity
17,QVQLVESGGGLVQAGGSLRLSCAASGRTFANNAMGWYRQAPGKERELVAAISSSDDSTYYADSVKGRFTISRDNAKNTVYLQMNILKPEDTAVYYCAAPYPGHQSRFGYESWGQGTQVTVSS,low polyreactivity
18,QVQLVESGGGLVQAGGSLRLSCAASGRTFYWYAMGWYRQAPGKERELVAAISSGGSTYYADSVKGRFTISRDNAKNTVYLQMNSLKPEDTAVYYCAAVTPSGAHRSAYHPISDYWGQGTQVTVSS,low polyreactivity
19,QVQLVESVGGVVQAGGSLRLSCAASGSIFRWNAMGWYRQARGKEWELVAVNTWRGGRTYYADSVKGRFTFSRDNAKKTVYLQMNSLNPEYTSFSYCAKGRLVTTLFGHYATCEYDSWGHGTQVTVSS,high polyreactivity
20,QVQLVESGGGLVQPGGRLRISCAASGRIFGRYAMGWYRLEPGKERELVAAITSSGGNTYYADSVKGRFTISRDNAKNTVYLQMNSMKPEDTAVYYCIARSARSRRQSDYWGQGTHVTVSS,high polyreactivity
21,QVQLVESGGGLVQAGGSLRLSCAASGSIFIQYAMGWYRQAPGKERELVAAITGSGGSTYYADSVKGRFTISRDNAKNTVYLQMNSLKPEDTAVYYCATEFKRGYVGFDYWGQGTQVTVSS,low polyreactivity
